Measurements taken from a protein production outcome set (Wang et al. 2014).

Assay: label from the status in PepcDB records
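Further: failed if final PepcDB status was selected cloned or expressed and not failed if soluble or beyond.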

Row | Sequence | protein production
1 | MPRCIIYVDFPCWHPVRQRPLRVRGRFRTFVRSHAFPSPPVSDPSPSSSDASPPDALVIIPTYNEADNIGPVIDQVLEQSPPLSVLVVDDNSTDGTADLVRSKKTDALDRVHLIERSGKLGLGTAYLRGFRYALAQDYTYICEMDADRSHDPNDLPRLIAPVREGEVALAIGSRYVEGVRVINWPLSRLVLSYGAGVYTRAITRLPLLDVTAGFKCFHRRVLETLPLDRVNSDGYAFQVEMHYRTWRAGFPFTEVPVVFTERTEGESKMRREIVVEAALKVWELRLQDLLGRL | failed
2 | MHPASFDDHIFRLLIEAVDDYAIYIIDAQGHILTWNNGAERNTGYNADEIIGQSFELFYTPEDLATQLPAKGLLHANQLGHYENQGWRVRKNGKRFWGHITLSALHDSEHNLQGFVQVTRDLTD | failed
3 | MAAQVEIEDQESVTNLDNGEIINPISDNAPNFSGDATILLREATFEHNLIKNCFLSGMGSFATETTIVTVRKILTQRLITTKAKFAVFKLFTEAMKRKNNGYANIRYGWYSGSKEEIDRVITYGFSNREIKKVENDVGSHGVGIHLVHHRYSLAAALVGEGDEEGIKNILLCRVILGKPEQIVTGSKQSYPSSNQFDSGVDNLENPRKYVIWSCNMNSYILPTYIVSFKSHLLRGLIGRARSPCVSFSVLMSILSKSLDAARMNLILTSYDDFRKRKLRREQLVRKIREVVGDNLLFKILKNQRR | not failed
4 | MAKYFDIDDILIEEEFVPVLFHKTANGVTIDPSAETNCVSLLIPSAKAEQGSKVELPFWLAHELHLRQAVTINLPPCFDQKTRLEVQADAAYVDLRSRCPYFYEFGCKIEPLVTDRTLGILLSTAFKIRYKEALTKVYTAAHITASKYLSFLTKEETNLYEAAHLSMTAFKKWRTGGPRFQRASILGRKRKDSN | failed
5 | MRKDTEEVQKSSGKTRKSYVKVKKKRRKSTKQKGPEPKKLDFVKDSWQKGSLEIKKLDFIGDRWQTVSLEPKMLGFVEDPWRKGSLEPKMLDFVEDPWQKGSLEPKMLDIVEDSWQKDSFEAMKLDFAEYNWISIDNRRVSADSKRSSVDSKRSSVDSKRSSVDSKRGSIDSRKFSVDSKRDPVDNKRDSVDSKRFSVDSKRFSVDSRRVSISSKRSSIDSKRSSVDSRKSSGGTLLDFSEDRRSSGEDRDISSLARVRHSRVPWATLMRALGRFKLYLPHIRRYYNLSSRDPLALDKDFLLPREKHLKATVQKSWGNQQPLSKIPYKTLTGHDQTVSSCHFCMDDTRLLSSSYDCTVKLWDAEDGTVICDFEPRPKAPVLECSITADNRRIVASSYDKTVRAWDVETGQLLWKVRHDTFVVCCKFSPNGKYVLSALDVNRGIYLMDPENITSVIHMKAQHQRSITSCCFDPDSQKVASVSMDKSIKIWDVTSRATLFTIQEAHTNAISDCCFTFSGHFLCTSSWDRTIKIWNVHTGEFRNQGACVTLMKGHEGCVSSCCIARDSSFLISGGFDKTVAIWDVGGGYRKLSLKGHEDWVTDVAISNDKKWILSASKDNSMRLWNIEEIDKIPLVSENKRAMGLKVRQCRNCDQLFSVLESDVYSQLSNTCLFCRREKKSLSSSSSSLSLSSLERLCI | failed
6 | SIDSKLQTLGEQLMQGKRGAIVMIEPETGEVLCLVSSPSYDPSLLAGKDRGKNHLEMEHDRNKPLYARAIQATYPPGSTFKPAQGAIFLQEGVIRPTDAFSCYHGFPPLNNRPACHSHGSPLSLVPALATSCNAFFCWGLRAMLDNRRFYPSVQEAFEHWKNRIVGLGFGYRLGLDLPGERRGYIPNSKVYDKAYKGRWNSSTIISISIGQGEILATPLQIANLGVIIANRGRYRRPHVVKAIQGIPLDTAYTNWQNSGISPANMEYIVEGMARAVTGGTCHAANFAPGEIEVCGKTGTAENPHGKDHSAFLGFAPRNNPKVVVSVYVENGGFGAVYGVPIGRVMMEYYLREGKLSPEGEAVATKMSNTAIHYSNVF | failed
7 | MEDIKIKEIFENIYEVDLGDGLKRIATKSIVKGKKVYDEKIIKIGDEEYRIWNPNKSKLAAAIIKGLKVMPIKRDSKILYLGASAGTTPSHVADIADKGIVYAIEYAPRIMRELLDACAERENIIPILGDANKPQEYANIVEKVDVIYEDVAQPNQAEILIKNAKWFLKKGGYGMIAIKARSIDVTKDPKEIFKEQKEILEAGGFKIVDEVDIEPFEKDHVMFVGIWEGK | not failed
8 | MNDIAREPVLGGAPAPAVPQPLRVRFCGSGSEYFRIWIVNLLLTIVTLGIYSAWAKVRTLQYFYRNTQLGGASFDYHGSPTAILKGRAIIFVLALAFNLSGQVSPVLTLLLLAAIGLVFPWLLVRSLRFRMANSSYRGLRFAFTGKDAQAYKVFLLWPVLTVFTFNLLAPFAHQRFKQYQHRNTRFGTTSFDFSATAGQFYGVYLRTFGMAILAVMAVGVVVVLAGVSAAAGAASGGRAIAVSLMVLAMYAAMLFLGPYFLARLQNVVWNHTTLGAHRFQSQVSAGKLFWIFISNAALLIVTLGLFTPFARVRSARYKLESVTMLAAGSLDTFVAGESTRVGALGDAAVDWYDIDIAL | failed
9 | MRSLCAGGRAIGLSGPDSRRHHRPQGPSEGASLILPDLSSSIAVGALIYWMLLLTIKHVFADFIFQNKWMAMGKDAKTGWALPLLAHCSVHLVMTTLLMLILAPRYWYIGVIDFLIHLAIDRLKGFLVATYDVTNQDRWFWWLIGTDQALHHLTGFGLAIVLAANP | failed
10 | MANIDLHFHSRTSDGALTPTEVIDRAAARAPALLALTDHDCTGGLAEAAAAAARRGIPFLNGVEVSVSWGRHTVHIVGLGIDPAEPALAAGLKSIREGRLERARQMGASLEAAGIAGCFDGAMRWCDNPEMISRTHFARHLVDSGAVKDMRTVFRKYLTPGKPGYVSHQWASLEDAVGWIVGAGGMAVIAHPGRYDMGRTLIERLILDFQAAGGQGIEVASGSHSLDDMHKFALHADRHGLYASSGSDFHAPGEGGRDVGHTEDLPPICRPIWRELEARILRP | failed
11 | MAPKAQKSPKGQRKGKKKTKQQSLVSEEEEPMNMESMDVAPGSSPDLDISMASDGHPEIYPLVLTAKTQEIFNCRIDEDMTDEQTYKLIKKEDILADLQNRAAVSDFHPVKKIVLEYPGEELLLVYDKDFKYGLNFYLIGTEEGKENFLKAPEIPEEQEDLKEHVPEDVYIYKPPVSKPWISLGSEKEIEEESVQESKKRVTYMISRKRSQFGAPVTFRDQNASSVKDAYIECTSYPDKSYTLTQVEKDIGLQVIAEVKDTSTQTRWAFPRNATTQYYPREFSEEEKNVLVESKSLAEFFSTVSTSVEIALQQNEIMNTFTDDWRSLAEEESTFGDKTDTHLKEYQSFTDLHNTMEKMITCVSWHPTIYGLIVVSVAVRLSYEERVQNSSRLLLQPSLILFWSFSDPIHPQLMLESPDDIFCFEFCPSDPNIIAGGCINGQIILWDITAHAERIENIKTGGSRSKKATLKPMFLLEPDSNKEIMYVRHCAVSSIENGHRKVITDIHWLPDSFEINRMGSVFENRSGINCQLITCSADCTICFWDIRPQKPTVTSAATATTTSTTNTNPQQPPAEKKKEESIEIPFDVPSTFLHLDLSWKPLSRIKLSKGETSLDHCPTKLSLGEDPALCKIQDKMLSQMKLLKAAEINPYQNLEGGMANMLKPIEDFRTKFFVGTEEGEVIYTDWKMERDSETGRLMAKKPVNLYTVHDGAVHTVQRSPFFNDIILTVGGWNVAIWKEEVLTGPLLQTCCAPKRYTAGHWSLTRPGVFYIGREDGYVDIWDLLEKTHEPAQSQSICITMITYIKPWTFSCRPPFLPQADRSMMVSLLMSMRHSAKPSGDQNPVSSVNYYFEREVKHLEYVQQRKEIREEEKKAMAMEMIKKKAKTYHRSKEQMEAELKLEYESYLELEQSVLFALGLGKVSEKMSYLDLH | failed
12 | YSGSQAPGGIQEIVAMSPELDTYSITKRVKEVLTDNNLGQRLFGESILGLTQGSVSDLLSRPKPWHKLSLKGREPFVRMQLWLNDPHNVEKLRDMKKL | not failed
13 | MKFLPYIFLLCCGLWSTISFADEDYIEYRGISSNNRVTLDPLRLSNKELRWLASKKNLVIAVHKSQTATLLHTDSQQRVRGINADYLNLLKRALNIKLTLREYADHQKAMDALAEGEVDIVLSHLVTSPPLNNDIAATKPLIITFPALVTTFHDSMRPLTSPKPVNIARVANYPPDEVIHQSFPKATIISFTNLYQALASVSAGHNDYFIGSNIITSSMISRYFTHSLNVVKYYNSPRQYNPLLTRKESVILNEVLNRFVDALTNEVRYEVSQNRLDTGNLAFLNKPLELTEHEKQWIKQHPNLKVLENPYSPPYSMTDENGSVRGVMGDILNIITLQTGLNFSPITVSHNIHAGTQLSPGGWDIIPGAIYSEDRENNVLFAEAFITTPYVFVMQKAPDSEQTLKKGMKVAIPYYYELHFELKEMYPEVEWIQVDNASAAFHKVKEGELDALVATQLNSRYMIDHYYPNELYHFLIPGVPNASLSFAFPRGEPELKDIINKALNAIPPSEVLRLTEKWIKMPNVTIDTWDLYSEQFYIVTTLSVLLVGSSLLWGFYLLRSVRRRKVIQGDLENQISFRKALSDSLPNPTYVVNWQGNVISHNSAFEHYFTADYYKNAMLPLENSDSPFKDVFSNAHEVTAETKENRTIYTQVFEIDNGIEKRCINHWHTLCNLPASDNAVYICGWQDITETRDLINALEVEKNKAIKATVAKSQFLATMSHEIRTPISSIMGFLELLSDSGLSKEQRVEAISLAYATKQSVLGLIGEILDVDKIESGNYQLQPQWVDIPTLVQNTCHSFGAIAASKSIALSCSSTFPEHYLVKIDPQAFKQVLSNLLSNALKFTTEGAVKITTSLGHIDDNHAVIKMTIMDSGSGLLQEEQQQLFKRYSQTSAGRQQTGSGLGLMICKELIKNMQGDLSLESHPGIGTTFTITIPVEISQQVATVEAKAEQPITLPEKLSILIADDHPTNRLLLKRQLNLLGYDVDEATDGVQALHKVSMQHYDLLITDVNMPNMDGFELTRKLREQNSSLPIWGLTANAQANEHEKGLSCGMNLCLFKPLTLDVLKTHLSQLYQVAHIAPQYRHLDIEALKNNTANDLQLMQEILMTFQHETHKDLPAAFQALEAGDNRTFHQCIHRIHGAANILNLQKLINISHQLEITPVSDDSKPEILQLLNSVKEHIAELDQEIAVFCQKND | failed
14 | MIFKKEPKRYTVEDTIPYLRLLKSGICQLDEKHFSKSIAFQDINYQLALDEDRDLIFNQFANFLNSFDPSISIEFSYVNQLGRNEEMKSAIQIPDKKDGFDDIRFEFREMLKSQIVKGNNGLKKSKYVTFTVEADNLEQATSKLERLEIDILSNLKSMGVRAESLNGEERLKILHDVLNPNKTFEFSYKDLKKRESTKTYIVPDEFNFTPSRYFKFGKFIGATSHFQILASELSDRMLSEFLDIDDNINISFHIRAIDQSEAIKMVKRKNTDIDKMKIEENKKAVRSGYDMDILPSDLITYGEDVKSLLKDLQTRDERMFVVSIVFMNFARTVQKLDNTIAQISSIANKHNCKLKRLDHSQEQGLVSMLPLGVNKIEIDRGLTSSSTAVFMPFTTEELFINSSNSLYYGLNALSHNLIMADRKKLKNPNGLILGTPGSGKSFSAKREMANAILVTDDDVIICDPEGEYGNLVRQFKGEVIKVSSKSKDYLNPLDINMNYGDGDAPLKDKANFIMSMLELVVGGSGLTAEEKSVIDRCLPKIYEKYFEHPTPDNMPILQDLYDMLKGQEEKVGKKLATEMEIYVSGSLNVFNHRSNVDLNKKLLCFDIKELGSQLKKIGMLVIQDQVWNKVSQNRGNKATRYYIDEFHLLLKDEQTASYSVEIWKRFRKWGGIPTGITQNVKDLLMSKEIENIFDNTDFVLMLNQASGDREILARKLKISLPQLRYVTNSNEGEGLLFFGNTIVPFLDKFPKDTILYQKMTTKPEEVRLEHHHHHH | not failed
15 | MDMGNQHPSISRLQEIQREVKAIEPQVVGFSGLSDDKNYKRLERILTKQLFEIDSVDTEGKGDIQQARKRAAQETERLLKELEQNA | not failed
16 | MKKTIEKILKDIIDATSITDMCDKSVCHWLQPVVDTIVFPEYYLFSSNHLKENIISLLIVLGVLLIFGLIVEEMMKRIFRKNEEKYMWVHKIFEKVIVAFLLFYSMKTIIYFIALKHHSF | failed
17 | MALRKIAGLYRIEKFIRERPVEKIRQWRQRYSRPIVNDLFAWPEEQEPCCPPDGPLNKAINYILNRRDELSCFLSDGAVPLDNNICERAIRPVVMGRKAWLFAGSLMAGNRAAQIMSLLETAKRNGLEPHAWLTDVLTRLPEWPEDRLEELLPLEGFTFSG | failed
